In paper PMC6555819, “Comprehensive study of nuclear receptor DNA binding provides a revised framework for understanding receptor specificity”:
Numbering of substitutions follows the chain as printed.

B1: NRC3_wobSeed98_DR4_G7A_o1 (dsDNA)
DNA 1: GCACTAATTGGTCAGCTGAGGTCACACACAATTCGGGCGATTGACAGCGTAGAATGAAGG
DNA 2: CCTTCATTCTACGCTGTCAATCGCCCGAATTGTGTGTGACCTCAGCTGACCAATTAGTGC
B2: NRC3_wobSeed17_DR0_T6A_o1 (dsDNA)
DNA 1: GCATAAGTAGGTTAGGGTCATTCAGAAAGTAGGGAAGCGATTGACAGCGTAGAATGAAGG
DNA 2: CCTTCATTCTACGCTGTCAATCGCTTCCCTACTTTCTGAATGACCCTAACCTACTTATGC
B3: NRC3_wobSeed49_DR2_G25C_o1 (dsDNA)
DNA 1: GCCAAACTAGGTCAAGAGGTCAAACTCCGCTTCCCGGCGATTGACAGCGTAGAATGAAGG
DNA 2: CCTTCATTCTACGCTGTCAATCGCCGGGAAGCGGAGTTTGACCTCTTGACCTAGTTTGGC
B4: NRC3_wobSeed46_DR1_A8G_o1 (dsDNA)
DNA 1: GCTTACCGAGGTGAAAGGTCGTTGATGCACGCCTTGGCGATTGACAGCGTAGAATGAAGG
DNA 2: CCTTCATTCTACGCTGTCAATCGCCAAGGCGTGCATCAACGACCTTTCACCTCGGTAAGC
B5: NRC3_wobSeed125_DR5_T24C_o1 (dsDNA)
DNA 1: GCCCTTACGGGTCACTGACAGGTCATAGCATTTGGAGCGATTGACAGCGTAGAATGAAGG
DNA 2: CCTTCATTCTACGCTGTCAATCGCTCCAAATGCTATGACCTGTCAGTGACCCGTAAGGGC
B6: NRC3_wobSeed61_DR2_G15C_o1 (dsDNA)
DNA 1: GCCGTCCAAGGTCACCAGGTCAGTGAAAGCGACGTGGCGATTGACAGCGTAGAATGAAGG
DNA 2: CCTTCATTCTACGCTGTCAATCGCCACGTCGCTTTCACTGACCTGGTGACCTTGGACGGC
B7: NRC3_wobSeed122_DR5_T9G_o1 (dsDNA)
DNA 1: GCGCTAGTGGGTCAGTAAAAGGTCACACACCGGTCGGCGATTGACAGCGTAGAATGAAGG
DNA 2: CCTTCATTCTACGCTGTCAATCGCCGACCGGTGTGTGACCTTTTACTGACCCACTAGCGC
B8: NRC3_wobSeed2_DR0_C25T_o1 (dsDNA)
DNA 1: GCCCTAGTTGGTCAAGGTCACACATGCTATAGGTACGCGATTGACAGCGTAGAATGAAGG
DNA 2: CCTTCATTCTACGCTGTCAATCGCGTACCTATAGCATGTGTGACCTTGACCAACTAGGGC
B9: NRC3_wobSeed34_DR1_T4G_o1 (dsDNA)
DNA 1: GCAGCGAAAGGTCGAAGGTGAGTATACCCACCCGAAGCGATTGACAGCGTAGAATGAAGG
DNA 2: CCTTCATTCTACGCTGTCAATCGCTTCGGGTGGGTATACTCACCTTCGACCTTTCGCTGC
B10: NRC3_wobSeed138_DR5_G15A_o1 (dsDNA)
DNA 1: GCGATACAGGGTCAACTAGAGGCCAGAGTATGGAAAGCGATTGACAGCGTAGAATGAAGG
DNA 2: CCTTCATTCTACGCTGTCAATCGCTTTCCATACTCTGGCCTCTAGTTGACCCTGTATCGC
B11: NRC3_wobSeed138_DR5_C23G_o1 (dsDNA)
DNA 1: B10 DNA 1 with A15G, C23G
DNA 2: B10 DNA 2 with G38C, T46C
B12: NRC3_wobSeed133_DR5_A8G_o1 (dsDNA)
DNA 1: GCCGTCCGAGGTCAATGCTAGGTCAGTGAAAGCATTGCGATTGACAGCGTAGAATGAAGG
DNA 2: CCTTCATTCTACGCTGTCAATCGCAATGCTTTCACTGACCTAGCATTGACCTCGGACGGC
B13: NRC3_wobSeed134_DR5_T20A_o1 (dsDNA)
DNA 1: GCGCTGCTAGGTCAACTGAAGGTCAGCTAAAGCTCGGCGATTGACAGCGTAGAATGAAGG
DNA 2: CCTTCATTCTACGCTGTCAATCGCCGAGCTTTAGCTGACCTTCAGTTGACCTAGCAGCGC
B14: NRC3_wobSeed134_DR5_T20G_o1 (dsDNA)
DNA 1: B13 DNA 1 with A20G
DNA 2: B13 DNA 2 with T41C
B15: NRC3_wobSeed134_DR5_C24G_o1 (dsDNA)
DNA 1: B13 DNA 1 with A20T, C24G
DNA 2: B13 DNA 2 with G37C, T41A
B16: NRC3_wobSeed63_DR2_G25T_o1 (dsDNA)
DNA 1: GCCGAACTAGGTCACCAGGACAGTTAAGAGGTTGGAGCGATTGACAGCGTAGAATGAAGG
DNA 2: CCTTCATTCTACGCTGTCAATCGCTCCAACCTCTTAACTGTCCTGGTGACCTAGTTCGGC
B17: NRC3_wobSeed63_DR2_T24C_o1 (dsDNA)
DNA 1: B16 DNA 1 with T24C, T25G
DNA 2: B16 DNA 2 with A36C, A37G
B18: NRC3_wobSeed25_DR1_G24C_o1 (dsDNA)
DNA 1: GCCAAACTAGGTCAAAGGTCAAACTCGAGCCAACCAGCGATTGACAGCGTAGAATGAAGG
DNA 2: CCTTCATTCTACGCTGTCAATCGCTGGTTGGCTCGAGTTTGACCTTTGACCTAGTTTGGC
B19: NRC3_wobSeed99_DR4_A26T_o1 (dsDNA)
DNA 1: GCTCTCGGAGGACACGAAAGGTCAGTGCTCGACATCGCGATTGACAGCGTAGAATGAAGG
DNA 2: CCTTCATTCTACGCTGTCAATCGCGATGTCGAGCACTGACCTTTCGTGTCCTCCGAGAGC
B20: NRC3_wobSeed50_DR2_C25A_o1 (dsDNA)
DNA 1: GCCCTAGTTGGTCAGGAGGTCACAAACCGGATATGAGCGATTGACAGCGTAGAATGAAGG
DNA 2: CCTTCATTCTACGCTGTCAATCGCTCATATCCGGTTTGTGACCTCCTGACCAACTAGGGC
B21: NRC3_wobSeed82_DR3_C16G_o1 (dsDNA)
DNA 1: GCATCGAAAGGTCGAGGAGGTGAGTATACACCGTTTGCGATTGACAGCGTAGAATGAAGG
DNA 2: CCTTCATTCTACGCTGTCAATCGCAAACGGTGTATACTCACCTCCTCGACCTTTCGATGC
B22: NRC3_wobSeed135_DR5_G4C_o1 (dsDNA)
DNA 1: GCCCAACTAGGTCATTGACAGGACAGTGAATAGTAAGCGATTGACAGCGTAGAATGAAGG
DNA 2: CCTTCATTCTACGCTGTCAATCGCTTACTATTCACTGTCCTGTCAATGACCTAGTTGGGC
B23: NRC3_wobSeed121_DR5_A6C_o1 (dsDNA)
DNA 1: GCCAACCTAGGTCACCGGAAGGTCAAAGTCCGCATGGCGATTGACAGCGTAGAATGAAGG
DNA 2: CCTTCATTCTACGCTGTCAATCGCCATGCGGACTTTGACCTTCCGGTGACCTAGGTTGGC
B24: NRC3_wobSeed109_DR4_A16G_o1 (dsDNA)
DNA 1: GCCGTCCAAGGTCATGGGAGGTCAGTGAAGACAGATGCGATTGACAGCGTAGAATGAAGG
DNA 2: CCTTCATTCTACGCTGTCAATCGCATCTGTCTTCACTGACCTCCCATGACCTTGGACGGC
B25: NRC3_wobSeed136_DR5_C23G_o1 (dsDNA)
DNA 1: GCTAGCCTAGGTCATTCAGGGGGCAGTATAGAAAGCGCGATTGACAGCGTAGAATGAAGG
DNA 2: CCTTCATTCTACGCTGTCAATCGCGCTTTCTATACTGCCCCCTGAATGACCTAGGCTAGC
B26: NRC3_wobSeed136_DR5_T8A_o1 (dsDNA)
DNA 1: B25 DNA 1 with T8A, G23C
DNA 2: B25 DNA 2 with C38G, A53T
B27: NRC3_wobSeed51_DR2_A12T_o1 (dsDNA)
DNA 1: GCCCTCGGAGGTCAGAAGGTCAGAGCTGTCCGCTTTGCGATTGACAGCGTAGAATGAAGG
DNA 2: CCTTCATTCTACGCTGTCAATCGCAAAGCGGACAGCTCTGACCTTCTGACCTCCGAGGGC
B28: NRC3_wobSeed141_DR5_A25C_o1 (dsDNA)
DNA 1: GCAGTCAAAGTTCAGGACGAGGTACCGTAAAGCACGGCGATTGACAGCGTAGAATGAAGG
DNA 2: CCTTCATTCTACGCTGTCAATCGCCGTGCTTTACGGTACCTCGTCCTGAACTTTGACTGC
B29: NRC3_random_hg19_188_o1 (dsDNA)
DNA 1: GCGCTAGGATTACAGGCACAAGCCACCGTGCCCAGCGCGATTGACAGCGTAGAATGAAGG
DNA 2: CCTTCATTCTACGCTGTCAATCGCGCTGGGCACGGTGGCTTGTGCCTGTAATCCTAGCGC
B30: NRC3_random_hg19_326_o1 (dsDNA)
DNA 1: GCATCAGGTCTGCACCTGCAGATGGCGAGGGTTGGCGCGATTGACAGCGTAGAATGAAGG
DNA 2: CCTTCATTCTACGCTGTCAATCGCGCCAACCCTCGCCATCTGCAGGTGCAGACCTGATGC
B31: NRC3_random_hg19_330_o1 (dsDNA)
DNA 1: GCAGACTTTGCATCCTGCTGAGAACTGCTCTGAGAGGCGATTGACAGCGTAGAATGAAGG
DNA 2: CCTTCATTCTACGCTGTCAATCGCCTCTCAGAGCAGTTCTCAGCAGGATGCAAAGTCTGC
B32: NRC3_random_hg19_473_o1 (dsDNA)
DNA 1: GCGCTACTCGGGAGGCTGAGGCAGGAGAATGGTGTGGCGATTGACAGCGTAGAATGAAGG
DNA 2: CCTTCATTCTACGCTGTCAATCGCCACACCATTCTCCTGCCTCAGCCTCCCGAGTAGCGC

Each binder was assayed against RARg:RXRa (Homo sapiens, UniProt P13631;P19793 full;full) (assay: no ligand; PBM; 270 nM : 90 nM RXRa; PBS pH 7.4, 2% milk, 0.02% Triton X-100, 1 mM DTT, BSA, 0.4 mg/ml salmon testes DNA). Conditions: tags: His kept;His cleaved; copies: 1;1; label: surface-attached array probe.
Procedure, shortened: (§1)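 Scanned fluorescence from custom Agilent 4×180K protein-binding microarrays was regression-normalized. Binding z-scores use random background probes as reference. Ligand-free nuclear receptor dimers were incubated on the arrays for 1 h and detected with antibodies against each partner (one per run).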

Chain of RARg:RXRa (P13631 whole entry, chain 1 of 2): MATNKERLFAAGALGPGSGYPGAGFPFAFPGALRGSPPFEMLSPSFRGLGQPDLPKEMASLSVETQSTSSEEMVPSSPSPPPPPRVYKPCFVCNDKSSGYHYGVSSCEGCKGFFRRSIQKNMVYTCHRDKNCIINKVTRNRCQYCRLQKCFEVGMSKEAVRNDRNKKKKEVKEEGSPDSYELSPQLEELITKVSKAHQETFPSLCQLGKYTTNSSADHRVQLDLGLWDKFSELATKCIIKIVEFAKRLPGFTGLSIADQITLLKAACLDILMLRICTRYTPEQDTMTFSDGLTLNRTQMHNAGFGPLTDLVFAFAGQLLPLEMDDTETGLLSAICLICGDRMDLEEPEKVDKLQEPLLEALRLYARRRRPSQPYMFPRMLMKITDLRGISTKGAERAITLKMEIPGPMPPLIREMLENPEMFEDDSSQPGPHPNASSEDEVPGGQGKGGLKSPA
Chain of RARg:RXRa (P19793 whole entry, chain 2 of 2): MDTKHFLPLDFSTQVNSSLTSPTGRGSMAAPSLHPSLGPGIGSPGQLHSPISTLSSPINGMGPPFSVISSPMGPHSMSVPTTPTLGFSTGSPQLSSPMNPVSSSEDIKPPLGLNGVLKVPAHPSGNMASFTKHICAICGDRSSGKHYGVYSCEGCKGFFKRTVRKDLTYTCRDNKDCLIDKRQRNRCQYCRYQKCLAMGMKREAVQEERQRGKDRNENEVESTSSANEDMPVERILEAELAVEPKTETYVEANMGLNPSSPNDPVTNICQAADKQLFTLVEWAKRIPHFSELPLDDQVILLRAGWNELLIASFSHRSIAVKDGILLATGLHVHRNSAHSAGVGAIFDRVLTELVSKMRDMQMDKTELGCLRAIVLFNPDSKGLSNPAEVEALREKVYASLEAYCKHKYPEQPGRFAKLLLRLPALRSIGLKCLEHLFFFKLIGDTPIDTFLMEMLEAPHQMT

**Q.** B1 was tested. Which binding signal did it give?
**A.** 4.44 PBM z-score against 500 random probes

**Q.** With B2 as the binder, how does the binding signal read?
**A.** 4.22 PBM z-score against 500 random probes

**Q.** B3 was tested. Which binding signal did it give?
**A.** 8.44 PBM z-score against 500 random probes

**Q.** How did the binding signal turn out when B4 was run?
**A.** 4.52 PBM z-score against 500 random probes

**Q.** Which binding signal does the source give for B5 here?
**A.** 7.68 PBM z-score against 500 random probes

**Q.** B6 was tested. Which binding signal did it give?
**A.** 7.32 PBM z-score against 500 random probes

**Q.** How did the binding signal turn out when B7 was run?
**A.** 7.46 PBM z-score against 500 random probes

**Q.** With B8 as the binder, how does the binding signal read?
**A.** 4.31 PBM z-score against 500 random probes

**Q.** B9 was tested. Which binding signal did it give?
**A.** 4.41 PBM z-score against 500 random probes

**Q.** Which binding signal does the source give for B10 here?
**A.** 7.73 PBM z-score against 500 random probes

**Q.** For B11, which binding signal is on record?
**A.** 7.69 PBM z-score against 500 random probes

**Q.** With B12 as the binder, how does the binding signal read?
**A.** 8.1 PBM z-score against 500 random probes

**Q.** For B13, which binding signal is on record?
**A.** 7.99 PBM z-score against 500 random probes

**Q.** For B14, which binding signal is on record?
**A.** 7.66 PBM z-score against 500 random probes

**Q.** Which binding signal does the source give for B15 here?
**A.** 4.58 PBM z-score against 500 random probes

**Q.** B16 was tested. Which binding signal did it give?
**A.** 4.47 PBM z-score against 500 random probes

**Q.** B17 was tested. Which binding signal did it give?
**A.** 4.29 PBM z-score against 500 random probes

**Q.** Which binding signal does the source give for B18 here?
**A.** 9.32 PBM z-score against 500 random probes

**Q.** How did the binding signal turn out when B19 was run?
**A.** 4.39 PBM z-score against 500 random probes

**Q.** Which binding signal does the source give for B20 here?
**A.** 4.55 PBM z-score against 500 random probes

**Q.** B21 was tested. Which binding signal did it give?
**A.** 4.27 PBM z-score against 500 random probes

**Q.** With B22 as the binder, how does the binding signal read?
**A.** 4.34 PBM z-score against 500 random probes

**Q.** For B23, which binding signal is on record?
**A.** 8.94 PBM z-score against 500 random probes

**Q.** For B24, which binding signal is on record?
**A.** 7.38 PBM z-score against 500 random probes

**Q.** Which binding signal does the source give for B25 here?
**A.** 7.73 PBM z-score against 500 random probes

**Q.** For B26, which binding signal is on record?
**A.** 7.41 PBM z-score against 500 random probes

**Q.** B27 was tested. Which binding signal did it give?
**A.** 7.6 PBM z-score against 500 random probes

**Q.** How did the binding signal turn out when B28 was run?
**A.** 4.17 PBM z-score against 500 random probes

What follows are binders tested against PPARa:RXRa (Homo sapiens, UniProt Q07869;P19793 full;full) in the same assay as above. Conditions: tags: GST kept;His cleaved; copies: 1;1; label: surface-attached array probe.
Procedure, shortened: as §1

Chain of PPARa:RXRa (Q07869 whole entry, chain 1 of 2): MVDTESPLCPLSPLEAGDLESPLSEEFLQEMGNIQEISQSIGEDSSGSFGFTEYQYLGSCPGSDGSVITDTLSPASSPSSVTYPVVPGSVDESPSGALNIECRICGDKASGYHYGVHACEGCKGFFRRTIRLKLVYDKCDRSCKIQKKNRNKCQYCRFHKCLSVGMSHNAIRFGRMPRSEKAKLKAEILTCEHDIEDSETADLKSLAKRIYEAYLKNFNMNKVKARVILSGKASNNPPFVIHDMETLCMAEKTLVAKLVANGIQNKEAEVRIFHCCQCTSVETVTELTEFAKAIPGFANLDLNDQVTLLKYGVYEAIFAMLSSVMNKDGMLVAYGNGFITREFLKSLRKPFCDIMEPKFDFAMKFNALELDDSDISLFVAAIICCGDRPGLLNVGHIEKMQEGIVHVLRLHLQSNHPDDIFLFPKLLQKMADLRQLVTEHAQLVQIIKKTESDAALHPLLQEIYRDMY
Chain of PPARa:RXRa (P19793 whole entry, chain 2 of 2): as the sequence (P19793 whole entry, chain 2 of 2) above

**Q.** Which binding signal does the source give for B29 here?
**A.** -0.72 PBM z-score against 500 random probes

**Q.** With B30 as the binder, how does the binding signal read?
**A.** -0.67 PBM z-score against 500 random probes

**Q.** How did the binding signal turn out when B31 was run?
**A.** -1.18 PBM z-score against 500 random probes

**Q.** B32 was tested. Which binding signal did it give?
**A.** -1.24 PBM z-score against 500 random probes
